Test results from patent US8349579B2, “Galectin-3 cleavage as a marker for matrix metalloproteinase activity in cancer” (Wayne State University, priority 2007, dated 2013).

Tests used:
MDA-MB-435 tumors = conditions: mice bearing MDA-MB-435 tumors, injection; cited from earlier work
[1] = test system: gelatinolytic activity (MMP) in MCF10 DCIS.com xenograft sections; conditions: DQ gelatin, incubated with EDTA (2 mM in method, 20 mM in FIG. 5 legend)
Method: In situ zymography was performed on the fresh frozen DCIS xenografts as described by Mook et. al. (29). In brief, 8 micron thick cryosections were air dried, rehydrated with PBS for 5 min and overlaid with a solution of 50 μg/ml fluorescein-labeled gelatin (DQ gelatin; Molecular Probes, Eugene, Oreg.), 1% w/v low melting temperature agarose (BioWhittaker Molecular Applications, Rockland, Me.) and 5 μg/ml DAPI (Molecular Probes) in PBS in the presence or absence of 2 mM EDTA and incubated on ice for 15 min followed by incubation in a humidified chamber at 37° C. for 2 hr. Protease catalyzed hydrolysis of the heavily labeled and totally quenched DQ Gelatin relieved the intra-molecular self quenching, yielding brightly fluorescent peptide, which was visualized by using imaging microscope.

MMP-2 = target: T1, MMP-2 (Homo sapiens, UniProt P08253); assay: Cleavage of recombinant galectin-3 proteins by activated MMP-2 (Western blot); format: biochemical; conditions: purified active MMP-2, 15 min, 37° C.
T1 sequence (P08253 110-660): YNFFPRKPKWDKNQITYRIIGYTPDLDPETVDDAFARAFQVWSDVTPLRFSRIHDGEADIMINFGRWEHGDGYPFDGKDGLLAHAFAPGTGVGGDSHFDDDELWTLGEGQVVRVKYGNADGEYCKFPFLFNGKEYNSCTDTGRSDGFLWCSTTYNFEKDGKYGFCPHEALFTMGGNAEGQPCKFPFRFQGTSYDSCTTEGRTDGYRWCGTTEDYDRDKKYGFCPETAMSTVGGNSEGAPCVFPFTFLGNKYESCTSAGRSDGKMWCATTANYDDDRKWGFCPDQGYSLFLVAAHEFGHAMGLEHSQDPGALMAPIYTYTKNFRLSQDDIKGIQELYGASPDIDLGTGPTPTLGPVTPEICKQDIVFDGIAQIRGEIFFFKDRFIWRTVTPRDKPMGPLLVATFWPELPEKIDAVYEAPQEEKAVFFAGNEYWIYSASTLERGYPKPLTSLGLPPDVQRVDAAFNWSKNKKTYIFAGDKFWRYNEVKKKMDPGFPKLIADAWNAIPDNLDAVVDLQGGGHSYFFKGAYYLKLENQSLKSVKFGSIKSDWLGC

MMP-9 = MMP-9 (Homo sapiens, UniProt P14780); assay: Cleavage of recombinant galectin-3 proteins by activated MMP-9 (Western blot); format: biochemical; conditions: purified active MMP-9, 60 min, 37° C.
Sequence of MMP-9 (P14780 107-707 limits assumed): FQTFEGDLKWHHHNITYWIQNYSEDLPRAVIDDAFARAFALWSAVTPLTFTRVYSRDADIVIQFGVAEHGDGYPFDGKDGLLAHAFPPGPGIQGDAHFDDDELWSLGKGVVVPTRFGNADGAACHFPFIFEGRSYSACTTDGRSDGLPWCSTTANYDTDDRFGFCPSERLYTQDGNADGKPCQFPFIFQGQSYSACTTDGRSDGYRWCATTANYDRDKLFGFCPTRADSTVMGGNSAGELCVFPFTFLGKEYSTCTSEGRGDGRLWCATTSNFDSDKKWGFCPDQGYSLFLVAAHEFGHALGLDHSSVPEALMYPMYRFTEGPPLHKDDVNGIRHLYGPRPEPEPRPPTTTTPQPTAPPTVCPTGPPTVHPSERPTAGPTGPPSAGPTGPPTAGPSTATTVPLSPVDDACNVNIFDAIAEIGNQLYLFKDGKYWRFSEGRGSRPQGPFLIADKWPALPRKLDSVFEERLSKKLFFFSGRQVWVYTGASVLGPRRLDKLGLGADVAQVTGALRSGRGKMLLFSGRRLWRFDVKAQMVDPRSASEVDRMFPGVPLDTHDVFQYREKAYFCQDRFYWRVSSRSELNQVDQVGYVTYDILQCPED

Row | Compound | tumor growth and metastasis (MDA-MB-435 tumors) | gelatinolytic activity in the stroma [1] | polypeptide produced upon incubation with MMP-2 (MMP-2) [kDa] | polypeptide produced upon incubation with MMP-9 (MMP-9) [kDa]
1 | cleaved galectin-3 peptide containing 108-250 amino acids: cleaved galectin-3 peptide containing 108-250 amino acids, from the literature (ref. 37) | loss of tumor growth and metastasis | – | – | –
2 | O=C(O)CN(CCN(CC(=O)O)CC(=O)O)CC(=O)O [EDTA] | – | abrogated | – | –
3 | Wild type galectin-3: recombinant human wild type galectin-3, isolated from a GST fusion protein | – | – | ~22 | ~22
4 | A33G: recombinant galectin-3 mutant with A33G substitution | – | – | ~22 | ~22
